Laboratory results from publication PMC4385932, “A transgenic mouse model to inducibly target prosurvival Bcl2 proteins with selective BH3 peptides in vivo” (Cell Death & Disease, 2015).

Target: T1, Bcl-xL (UniProt Q07817-1 1-233)
T1 construct: Bcl-xL, prosurvival Bcl-2 family protein
Test: SPR; no format or conditions told

T1 sequence (Q07817 whole entry): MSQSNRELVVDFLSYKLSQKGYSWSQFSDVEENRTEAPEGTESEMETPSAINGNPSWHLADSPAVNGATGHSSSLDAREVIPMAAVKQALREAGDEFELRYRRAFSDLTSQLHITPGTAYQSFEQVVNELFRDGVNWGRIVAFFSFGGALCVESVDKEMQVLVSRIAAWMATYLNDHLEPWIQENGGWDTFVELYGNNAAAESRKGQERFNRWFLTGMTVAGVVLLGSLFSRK

Kd [nM] | Binder
8.5 | BimSBad^mut (BimSBad with the Bad BH3 residue F121 mutated to alanine) (ligand, N-terminal FLAG tag left out. Same conventional swap limits and species assumption as m1.) MAKQPSDVSSECDREGRQLQPAERPPQLRPGAPTSLQTEPQASMRQAEPANLWAAQRYGRELRRMSDEAVDSFKKGVFLNNYQAAEDHPRMVILRLLRYIVRLVWRMH
< 0.2 | BimSBad (BimS BH3-only protein in which the native BH3 sequence is replaced by the BH3 domain of Bad) (ligand, N-terminal FLAG tag left out. BimS = BimEL lacking 42-131. Swap limits are only in Figure 1a; the conventional 26-mer exchange is used (Bim 141-166, which is BimS 51-76, replaced by Bad 103-128). The) MAKQPSDVSSECDREGRQLQPAERPPQLRPGAPTSLQTEPQASMRQAEPANLWAAQRYGRELRRMSDEFVDSFKKGVFLNNYQAAEDHPRMVILRLLRYIVRLVWRMH
